According to patent publication US20140099324A1 (University of Texas, published 2014):

Legend:
[1] = molecular target: HERV-K recombinant fusion protein K10Q18 (K-SU in pQE30, N-terminal 6-His) (human endogenous retrovirus K); assay: flow cytometry on dendritic cells pulsed with the protein
[2] = molecular target: T1, HERV-K env protein expressed endogenously by human cancer cell lines (human endogenous retrovirus K); assay: cell-based or functional assay
T1 chain: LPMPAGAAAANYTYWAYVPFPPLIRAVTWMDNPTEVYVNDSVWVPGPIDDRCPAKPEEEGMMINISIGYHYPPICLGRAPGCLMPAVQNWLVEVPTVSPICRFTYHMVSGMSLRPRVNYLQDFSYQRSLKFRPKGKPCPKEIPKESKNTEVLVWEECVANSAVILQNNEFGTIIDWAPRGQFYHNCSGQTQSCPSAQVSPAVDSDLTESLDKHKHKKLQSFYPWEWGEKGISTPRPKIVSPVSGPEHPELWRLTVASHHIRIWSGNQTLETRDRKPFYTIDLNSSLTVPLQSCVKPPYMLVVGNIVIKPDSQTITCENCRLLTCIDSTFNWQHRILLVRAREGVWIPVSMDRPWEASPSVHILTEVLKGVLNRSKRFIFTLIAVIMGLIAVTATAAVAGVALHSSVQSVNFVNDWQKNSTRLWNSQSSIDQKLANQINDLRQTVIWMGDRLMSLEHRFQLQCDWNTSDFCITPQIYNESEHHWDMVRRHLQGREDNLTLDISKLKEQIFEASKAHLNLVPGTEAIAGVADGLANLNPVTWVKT

## anti-RGS monoclonal antibody (Qiagen)
[1]
  percent of DCs positive: > 70%

B1: anti-HERV-K env monoclonal antibody 6H5 (antibody, V domains shown)
VH: MAQVKLQQSGPDLVKPGASVKISCKASGYSFTGYYMHWVKQSHGKSLEWIGRVNPNSGGTSYNQKFKDKAILTVDKSSSTAYMELRSLTSEDSAVYYCARSKGNYFYAMDY
VL: ASLAVSLGQRATISCRASESVDSHGTSFMHWYQQKPGQPPKFLIYRASNLESGIPARFSGSGSRTDFTLTINPVETDDVAIYYCQQSNEDPPTFGGGTKLEIK
[2]
  IC50, cytotoxicity toward MCF-7 breast cancer cells (72 h, crystal violet): 51.7 nM
  IC50, cytotoxicity toward MDA-MB-231 breast cancer cells (72 h, crystal violet): 6.6 nM
